Data: US20210024615A1 (LIVERPOOL SCHOOL OF TROPICAL MEDICINE, published 2021)

Tests used:
Assay in all cases: ELISA
[1] = target: C1q (UniProt P02745 23-245; P02746 28-253; P02747 29-245)
[2] = target: T1, human FcγRIIB (human, UniProt P31994 46-217)
T1 construct: also called CD32B
T1 sequence (looked up): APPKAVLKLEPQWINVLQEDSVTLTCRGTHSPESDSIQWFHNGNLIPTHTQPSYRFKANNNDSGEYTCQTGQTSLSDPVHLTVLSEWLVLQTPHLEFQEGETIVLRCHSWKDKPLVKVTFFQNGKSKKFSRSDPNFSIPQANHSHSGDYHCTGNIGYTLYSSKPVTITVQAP

[3] = target: human FcγRIIIA (human, UniProt P08637 17-208)
[4] = target: MBL (UniProt P11226 21-248)
[5] = target: T2, Siglec-2 (UniProt P20273 20-687)
T2 construct: also called CD22

[6] = target: T3, dectin-2 (UniProt Q6EIG7 46-209)
T3 construct: also called dec-2
T3 sequence (looked up): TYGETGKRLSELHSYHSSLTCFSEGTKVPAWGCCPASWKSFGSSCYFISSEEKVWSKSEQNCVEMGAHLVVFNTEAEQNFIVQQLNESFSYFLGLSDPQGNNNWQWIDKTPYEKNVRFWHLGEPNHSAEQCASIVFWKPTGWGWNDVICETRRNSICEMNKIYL

[7] = target: T4, dectin-1 (UniProt Q9BXN2-2 66-201)
T4 construct: also called dec-1
T4 sequence (looked up): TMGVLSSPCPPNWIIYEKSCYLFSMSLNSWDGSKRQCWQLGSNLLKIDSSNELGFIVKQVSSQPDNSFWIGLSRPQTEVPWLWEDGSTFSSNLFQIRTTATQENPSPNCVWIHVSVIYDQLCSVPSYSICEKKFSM

[8] = target: Siglec-3 (UniProt P20138 18-259)
[9] = target: T5, Siglec-4 (UniProt P20916 20-516)
T5 construct: also called MAG
T5 sequence (looked up): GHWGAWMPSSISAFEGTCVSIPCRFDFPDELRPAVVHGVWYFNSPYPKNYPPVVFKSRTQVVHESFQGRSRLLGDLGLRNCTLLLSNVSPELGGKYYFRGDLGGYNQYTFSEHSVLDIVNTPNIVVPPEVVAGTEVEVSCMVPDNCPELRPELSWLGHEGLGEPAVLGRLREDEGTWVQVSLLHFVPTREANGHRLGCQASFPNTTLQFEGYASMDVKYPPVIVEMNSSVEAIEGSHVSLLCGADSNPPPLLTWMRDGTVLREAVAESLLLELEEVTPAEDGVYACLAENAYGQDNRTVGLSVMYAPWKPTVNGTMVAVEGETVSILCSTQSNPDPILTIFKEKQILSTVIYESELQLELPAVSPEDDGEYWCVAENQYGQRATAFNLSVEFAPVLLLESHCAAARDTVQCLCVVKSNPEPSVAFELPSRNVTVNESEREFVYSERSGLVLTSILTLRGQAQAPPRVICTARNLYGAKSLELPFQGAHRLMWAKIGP

[10] = target: T6, MMR (UniProt P22897 19-1383)
T6 sequence (looked up): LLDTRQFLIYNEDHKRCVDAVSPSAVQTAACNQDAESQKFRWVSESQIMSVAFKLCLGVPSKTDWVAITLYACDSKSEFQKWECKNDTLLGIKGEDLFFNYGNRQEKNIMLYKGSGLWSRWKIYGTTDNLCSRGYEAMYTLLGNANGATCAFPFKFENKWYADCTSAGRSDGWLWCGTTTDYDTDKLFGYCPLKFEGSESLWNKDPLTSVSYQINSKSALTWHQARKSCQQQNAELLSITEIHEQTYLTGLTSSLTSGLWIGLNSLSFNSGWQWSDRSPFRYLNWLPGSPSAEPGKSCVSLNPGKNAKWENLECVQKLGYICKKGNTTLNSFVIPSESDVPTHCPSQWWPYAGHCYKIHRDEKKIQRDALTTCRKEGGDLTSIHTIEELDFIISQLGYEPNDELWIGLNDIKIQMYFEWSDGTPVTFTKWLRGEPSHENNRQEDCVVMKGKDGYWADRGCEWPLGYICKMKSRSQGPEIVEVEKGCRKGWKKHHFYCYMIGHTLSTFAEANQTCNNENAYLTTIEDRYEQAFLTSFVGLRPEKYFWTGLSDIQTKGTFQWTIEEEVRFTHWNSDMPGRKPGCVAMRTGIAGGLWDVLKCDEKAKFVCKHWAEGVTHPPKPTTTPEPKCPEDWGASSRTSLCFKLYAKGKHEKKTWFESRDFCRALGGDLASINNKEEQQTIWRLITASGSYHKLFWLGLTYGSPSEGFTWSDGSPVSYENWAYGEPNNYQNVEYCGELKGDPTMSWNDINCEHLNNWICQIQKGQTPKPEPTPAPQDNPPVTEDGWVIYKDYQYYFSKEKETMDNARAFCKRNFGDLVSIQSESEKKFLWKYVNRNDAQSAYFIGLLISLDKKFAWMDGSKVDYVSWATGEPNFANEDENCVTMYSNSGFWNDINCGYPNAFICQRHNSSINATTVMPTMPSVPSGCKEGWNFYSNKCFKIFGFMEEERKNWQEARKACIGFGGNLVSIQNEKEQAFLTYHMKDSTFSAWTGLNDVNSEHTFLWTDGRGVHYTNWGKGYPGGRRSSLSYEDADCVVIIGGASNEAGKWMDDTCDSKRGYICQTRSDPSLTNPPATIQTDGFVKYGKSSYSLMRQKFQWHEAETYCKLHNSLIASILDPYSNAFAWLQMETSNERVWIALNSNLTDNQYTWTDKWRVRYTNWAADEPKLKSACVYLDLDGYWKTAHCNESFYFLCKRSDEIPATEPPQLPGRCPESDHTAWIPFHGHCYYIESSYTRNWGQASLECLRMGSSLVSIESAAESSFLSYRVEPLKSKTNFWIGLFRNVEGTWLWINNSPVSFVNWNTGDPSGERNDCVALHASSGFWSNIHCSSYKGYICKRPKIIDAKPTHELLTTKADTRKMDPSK

[11] = target: T7, clec-4a (UniProt Q9UMR7 70-237)
T7 construct: also called DCIR
T7 sequence (looked up): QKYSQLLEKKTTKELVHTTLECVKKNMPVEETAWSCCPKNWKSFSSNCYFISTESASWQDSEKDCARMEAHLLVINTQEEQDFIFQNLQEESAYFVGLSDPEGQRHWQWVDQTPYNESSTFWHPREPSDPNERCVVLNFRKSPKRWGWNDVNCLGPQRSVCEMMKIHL

[12] = target: T8, clec-4d (UniProt Q8WXI8 39-215)
T8 sequence (looked up): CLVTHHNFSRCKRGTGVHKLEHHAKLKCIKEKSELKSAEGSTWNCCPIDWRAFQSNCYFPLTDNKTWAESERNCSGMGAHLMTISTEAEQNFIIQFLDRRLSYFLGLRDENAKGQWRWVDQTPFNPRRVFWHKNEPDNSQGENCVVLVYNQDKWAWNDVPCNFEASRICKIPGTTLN

[13] = target: T9, tetrameric human DC-SIGN (human, UniProt Q9NNX6 66-404)
T9 sequence (looked up): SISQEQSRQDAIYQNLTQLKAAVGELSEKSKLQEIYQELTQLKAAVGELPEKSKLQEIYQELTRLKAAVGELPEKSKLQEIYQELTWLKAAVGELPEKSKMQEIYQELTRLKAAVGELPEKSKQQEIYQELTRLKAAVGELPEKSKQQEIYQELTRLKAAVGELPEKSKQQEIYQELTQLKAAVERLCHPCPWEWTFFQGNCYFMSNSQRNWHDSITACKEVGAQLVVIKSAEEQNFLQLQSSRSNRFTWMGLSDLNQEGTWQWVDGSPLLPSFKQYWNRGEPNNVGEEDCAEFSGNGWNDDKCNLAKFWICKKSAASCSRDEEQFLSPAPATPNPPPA

[14] = target: T10, CD23 (UniProt P06734 48-321)
T10 sequence (looked up): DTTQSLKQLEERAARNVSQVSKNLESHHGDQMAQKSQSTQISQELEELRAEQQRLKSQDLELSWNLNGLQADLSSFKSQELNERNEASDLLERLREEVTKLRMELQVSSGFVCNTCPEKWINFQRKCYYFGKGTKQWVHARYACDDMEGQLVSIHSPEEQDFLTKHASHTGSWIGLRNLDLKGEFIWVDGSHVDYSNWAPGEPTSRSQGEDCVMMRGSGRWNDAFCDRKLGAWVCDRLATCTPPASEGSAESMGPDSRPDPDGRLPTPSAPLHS

Measured: binding result

Chain of human FcγRIIIA (P08637 17-208 limits assumed): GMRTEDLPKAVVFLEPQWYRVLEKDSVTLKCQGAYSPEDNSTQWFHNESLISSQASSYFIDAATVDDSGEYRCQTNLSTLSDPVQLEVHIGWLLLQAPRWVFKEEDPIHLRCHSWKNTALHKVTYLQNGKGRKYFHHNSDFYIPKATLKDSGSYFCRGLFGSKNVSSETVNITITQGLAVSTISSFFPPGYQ
Chain of MBL (P11226 21-248 limits assumed): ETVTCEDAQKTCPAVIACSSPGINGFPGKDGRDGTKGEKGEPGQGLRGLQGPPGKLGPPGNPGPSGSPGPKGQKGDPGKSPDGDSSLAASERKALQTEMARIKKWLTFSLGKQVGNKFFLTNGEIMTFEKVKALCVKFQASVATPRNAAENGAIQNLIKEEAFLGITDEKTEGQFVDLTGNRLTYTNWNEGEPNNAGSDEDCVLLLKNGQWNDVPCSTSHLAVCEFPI
Chain of C1q (P02745 23-245, chain 1 of 3): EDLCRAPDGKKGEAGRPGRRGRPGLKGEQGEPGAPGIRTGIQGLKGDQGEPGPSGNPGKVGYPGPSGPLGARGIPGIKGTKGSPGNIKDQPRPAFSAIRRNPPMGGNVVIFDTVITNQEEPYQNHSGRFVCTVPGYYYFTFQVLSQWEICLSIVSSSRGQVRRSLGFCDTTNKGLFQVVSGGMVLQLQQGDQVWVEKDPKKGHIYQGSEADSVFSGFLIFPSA
Chain of C1q (P02746 28-253, chain 2 of 3): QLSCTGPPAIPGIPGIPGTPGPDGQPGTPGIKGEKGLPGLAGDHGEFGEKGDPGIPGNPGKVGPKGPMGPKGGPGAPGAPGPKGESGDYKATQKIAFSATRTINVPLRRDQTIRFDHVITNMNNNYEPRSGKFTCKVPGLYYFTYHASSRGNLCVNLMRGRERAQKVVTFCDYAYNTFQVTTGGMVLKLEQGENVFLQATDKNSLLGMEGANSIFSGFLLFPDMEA
Chain of C1q (P02747 29-245, chain 3 of 3): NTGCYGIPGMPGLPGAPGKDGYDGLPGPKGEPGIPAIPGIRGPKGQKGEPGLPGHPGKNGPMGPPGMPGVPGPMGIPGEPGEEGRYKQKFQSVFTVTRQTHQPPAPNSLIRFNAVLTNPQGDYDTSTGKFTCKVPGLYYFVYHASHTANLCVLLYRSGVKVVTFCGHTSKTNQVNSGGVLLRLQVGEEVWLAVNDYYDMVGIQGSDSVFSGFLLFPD
Chain of Siglec-3 (P20138 18-259 limits assumed): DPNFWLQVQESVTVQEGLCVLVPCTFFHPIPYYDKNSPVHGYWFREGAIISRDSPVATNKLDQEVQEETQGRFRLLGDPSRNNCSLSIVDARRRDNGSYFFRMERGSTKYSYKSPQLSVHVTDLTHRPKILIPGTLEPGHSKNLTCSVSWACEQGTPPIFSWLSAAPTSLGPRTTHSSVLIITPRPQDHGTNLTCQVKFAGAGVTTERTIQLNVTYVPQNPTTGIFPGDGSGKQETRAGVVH

B1: [change]/[change] (other)
chain: DKTHTCPPCPAPELLGGPSVFLFPPKPKDTLMISRTPEVTCVVVDVSHEDPEVKFNWYVDGVEVHNAKTKPREEQYASTYRVVSVLTVCLQDWLNGKEYKCKVSNKALPAPIEKTISKAKGQPREPQVYTLPPSREEMTKNQVSLTCLVKGFYPSDIAVEWESNGQPENNYKTTPPVLDSDGSFFLYSKLTVDKSRWQQGNVFSCSVMHEALHNHYTQKSLSLSPGKLVLGPPLYNVSLVMSDTAGTAY
no binding: [1] | [2] | [3] | [4] | [5] | [6] | [7] | [8] | [9] | [10] | [11] | [12] | [13]

B2: [change]/[change]/[change] (other)
chain: DKTHTCPPCPAPELLGGPSVFLFPPKPKDTLMISRTPEVTCVVVDVSHEDPEVKFNWYVDGVEVHNAKTKPREEQYASTYRVVSVLTVCLQDWLNGKEYKCKVSNKALPAPIEKTISKAKGQPREPQVYTLPPSREEMTKNQVSLTCLVKGFYPSDIAVEWESNGQPENNYKTTPPVLDSDGSFFLYSKLTVDKSRWQQGNVFSCSVMHEALHNHYTQKSLSLSPGKLVLGPPLYAVSLVMSDTAGTAY
no binding: [3] | [8] | [11] | [12] | [14]
binds: [2] | [13]

B3: [change]/[change]/[change] (other)
chain: NKTHTCPPCPAPELLGGPSVFLFPPKPKDTLMISRTPEVTCVVVDVSHEDPEVKFNWYVDGVEVHNAKTKPREEQYASTYRVVSVLTVCLQDWLNGKEYKCKVSNKALPAPIEKTISKAKGQPREPQVYTLPPSREEMTKNQVSLTCLVKGFYPSDIAVEWESNGQPENNYKTTPPVLDSDGSFFLYSKLTVDKSRWQQGNVFSCSVMHEALHNHYTQKSLSLSPGKLVLGPPLYNVSLVMSDTAGTAY
no binding: [1] | [2] | [3] | [4] | [5] | [6] | [7] | [8] | [9] | [10] | [11] | [12] | [13]

B4: [change]/[change] (other)
chain: NKTHTCPPCPAPELLGGPSVFLFPPKPKDTLMISRTPEVTCVVVDVSHEDPEVKFNWYVDGVEVHNAKTKPREEQYNSTYRVVSVLTVCLQDWLNGKEYKCKVSNKALPAPIEKTISKAKGQPREPQVYTLPPSREEMTKNQVSLTCLVKGFYPSDIAVEWESNGQPENNYKTTPPVLDSDGSFFLYSKLTVDKSRWQQGNVFSCSVMHEALHNHYTQKSLSLSPGKLVLGPPLYNVSLVMSDTAGTAY
no binding: [1] | [3] | [4] | [6] | [7] | [8] | [10] | [11] | [12] | [13]
